This passage reports protein stability index results from the supplement of paper PMC10724198.

± gives the standard deviation of the averaged measurements.
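Also: PSI is a weighted mean of sequencing reads over stability bins, variants kept only with over 10 reads, mCherry proximal and sfGFP distal, peptide attached via GGGS linker.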

The test system of this series is Saccharomyces cerevisiae. The series is described as follows: protein stability index of tFT-peptide fusion (C-terminal peptide) (PSI (0-1 scale)); higher = more stable (slower turnover). The conditions noted are these: genetic background: wild type; temperature: 30 C.
As for QSGTRRRKRCSD, the protein stability index worked out at 0.693 ± 0.042. As for QSILGLVERVIK, the protein stability index is 0.643 ± 0.032. QSPSHSYLCHLF yielded a protein stability index of 0.583 ± 0.097. With QSRSEVFPCHAS the figure was 0.848 ± 0.15. Next, QSSWGGRWVRGG: 0.669 ± 0.011; QTAAGLKPMSNR: 0.777 ± 0.17.

On to QTIRNLEVPLTG, for which the protein stability index was 0.751 ± 0.017. With QTKEGSDRHRSS the figure was 0.748 ± 0.015. Next, QTPLPPSAISPP: 0.7124 ± 0.005. Next, QTPPPLPSPHPH: 0.635 ± 0.09; QTPPPRLPPRPP: 0.669 ± 0.062; QTQSNTRIERKK: 0.668 ± 0.057. The sequence QTTKPRDPPLHP showed a protein stability index of 0.787 ± 0.13. For QVDLVCKKVVGV, the protein stability index was 0.655 ± 0.029. Sequence QVFFDTSDHRMG displayed a protein stability index of 0.72 ± 0.029. With QVHNTEICVPLV the figure was 0.679 ± 0.013; with QVISDEHLCRFV, 0.651 ± 0.083.

QVKKKKQNDAKN yielded a protein stability index of 0.646 ± 0.074. With QVRCCQEYSSEE the figure was 0.69 ± 0.026.

QVWMRDCARKFQ returned a protein stability index of 0.731 ± 0.012. In the case of QYVYIPGLSNLC, the protein stability index worked out at 0.632 ± 0.019. Next, QYWIYTGLKSLS: 0.598 ± 0.039; RAAQVFPHVLPR: 0.6726 ± 0.0022. Turning to RACLVWKSLGWV, the protein stability index was found to be 0.605 ± 0.084. On to RACRISSIRVGI, for which the protein stability index was determined as 0.651 ± 0.014.

RAFVSDLPHPKS had a protein stability index of 0.704 ± 0.098. With RAKGILPESEQI the figure was 0.72 ± 0.035. RAKRADPSGPPR displayed a protein stability index of 0.724 ± 0.051. For the sequence RALGDGRLGQDT, the protein stability index came out at 0.682 ± 0.014. With RALITRAPSKER the figure was 0.795 ± 0.084. RALSPFPSILPS: the protein stability index was found to be 0.719 ± 0.068.

In the case of RAMGDRSIRLDV, the protein stability index came out at 0.679 ± 0.02. For RAPPPPHPSSPP, the protein stability index was 0.744 ± 0.079. With RAPVRPSEYTRP the figure was 0.681 ± 0.028; with RARASLIPNAGT, 0.705 ± 0.037; with RARTKGRMRTCR, 0.749 ± 0.15. Next, RASQRGVRGGGG: 0.666 ± 0.02. Next, RAWELPRLRGRE: 0.6682 ± 0.0039; RCAGWSVDVGEG: 0.623 ± 0.17; RCCVPCWFMTLV: 0.555 ± 0.021.

RCFQPLRQRMGR: the protein stability index is 0.734 ± 0.064. RCGGIWWIVSSV gave a protein stability index of 0.669 ± 0.081. With RCHAFGEWLRGW the figure was 0.733 ± 0.003.

RCLGFSACPATY had a protein stability index of 0.809 ± 0.14. With RCLRGGMLGFGR the figure was 0.627 ± 0.052; with RCPRRASSPTLS, 0.843 ± 0.17; with RCSPPVFDTGES, 0.652 ± 0.017. With RCTLSSFIYFCP the figure was 0.601 ± 0.039; with RCTPPPPTPPAT, 0.6832 ± 0.0027. RCVGVLYVAGLE displayed a protein stability index of 0.6533 ± 0.0012. Next, RCVGWRRTPESS: 0.739 ± 0.064.

RDGLVPFCVVII displayed a protein stability index of 0.615 ± 0.048.

As to RDKKMKHIKDKR, the protein stability index came to 0.79 ± 0.11. For RDLGPSAISMTV, the protein stability index was found to be 0.628 ± 0.043. With RDPPLLQPTTSS the figure was 0.648 ± 0.018; with RDQMDNILQRFR, 0.656 ± 0.077. RDSMVFEVRYSQ yielded a protein stability index of 0.698 ± 0.1. As to REEKRREEEGKK, the protein stability index came to 0.701 ± 0.028. As to REGGDPPDGGTG, the protein stability index is 0.734 ± 0.039. The sequence REKEIIIIKKEK had a protein stability index of 0.683 ± 0.037.

RETSGEVESDVT returned a protein stability index of 0.678 ± 0.014. Next, REVGSTILAVVH: 0.645 ± 0.031. Next, RFAPCSPPADPS: 0.68 ± 0.019; RFCRPVCRFNLG: 0.647 ± 0.063; RFLCPSSFIELL: 0.794 ± 0.12. Next, RFLESNGRPFHK: 0.673 ± 0.0088; RFRDSGRWLSAE: 0.765 ± 0.063; RFRTVFFPLPRC: 0.716 ± 0.062. As to RFVCSRLGGSVP, the protein stability index was determined as 0.64 ± 0.0029. Consider RGARRHSPTARW, for which the protein stability index worked out at 0.717 ± 0.037. Next, RGAVEAGGWRIG: 0.682 ± 0.0087; RGFGPTPRSSGG: 0.707 ± 0.046.

RGFPALLPAPAC displayed a protein stability index of 0.753 ± 0.12. Next, RGGAGGRQGCGG: 0.746 ± 0.043; RGGARGRQGCGG: 0.765 ± 0.034. With RGGGAGAVQYRS the figure was 0.642 ± 0.014; with RGGGGGGIGFPR, 0.681 ± 0.066. With RGGGGGRVAREC the figure was 0.668 ± 0.011; with RGGGQAKAPAGD, 0.6566 ± 0.0011; with RGGWGGYRGGVP, 0.757 ± 0.021.
